From patent US20240327815A1 come the findings set out here.

In general, IC50 refers to the concentration needed to halve the response being measured. Higher therefore signals weaker potency in that assay. What is called Kd is the equilibrium constant for the complex coming apart. A higher Kd goes with weaker binding.

For test [1], the target named is WT SARS-CoV-2 spike protein, plate-coated (MSD V-Plex) (SARS-CoV-2) (UniProt P0DTC2). The experiment in a line: MSD competition vs labelled ACE2.
The target in test [2] is full length wild type SARS-CoV-2 spike glycoprotein on pseudotyped lentivirus (SARS-CoV-2) (UniProt P0DTC2). In words: cell-based or functional assay.
The target of test [3] is SARS-CoV-2 spike RBD-His (R&D Systems, cat #10500-CV) (SARS-CoV-2) (UniProt P0DTC2). The experiment in a line: SPR, 1:1 model.
The target is the same in test [4]. The experiment in a line: SPR. On the technique in general: Surface plasmon resonance follows binding to a sensor surface in real time, without labels.

In the case of Bamlanivimab + Etesevimab, the IC50 in test [1] was 0.07 nM.

For REGEN-COV, in test [2], the Pseudovirus Neutralization (IC50, nM) was 0.09 nM and the Pseudovirus neutralization IC50 was determined as 0.09 nM. The IC50 in test [1] turned out to be 0.07 nM.

REGN10933 (Casirivimab) (antibody): the Kd in test [3] and in test [4] was 0.0708 nM throughout.

Regarding REGN10987 (Imdevimab) (antibody), the Kd in test [3] and in test [4] was 0.0869 nM each time.

Substance Sotrovimab (antibody) had a Pseudovirus Neutralization (IC50, nM) in test [2] of 0.11 nM.
